Test results reported in paper PMC7293033 (2020).

Target: His-FGF2, LMW FGF2 (residues 135-288, C211S/C229S) (human, UniProt P09038 135-288, C211S | C229S)
Assay: SPR

Chain of His-FGF2, LMW FGF2 (residues 135-288, C211S/C229S) (P09038 135-288 C211S/C229S): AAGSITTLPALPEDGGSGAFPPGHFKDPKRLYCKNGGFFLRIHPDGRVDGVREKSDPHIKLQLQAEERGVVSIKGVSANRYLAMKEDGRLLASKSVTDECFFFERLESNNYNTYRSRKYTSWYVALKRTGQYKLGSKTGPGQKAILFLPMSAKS

B1: His-API5 (apoptosis inhibitor 5, residues 1-504, isoform 2), wild type (natural protein)
chain: MPTVEELYRNYGILADATEQVGQHKDAYQVILDGVKGGTKEKRLAAQFIPKFFKHFPELADSAINAQLDLCEDEDVSIRRQAIKELPQFATGENLPRVADILTQLLQTDDSAEFNLVNNALLSIFKMDAKGTLGGLFSQILQGEDIVRERAIKFLSTKLKTLPDEVLTKEVEELILTESKKVLEDVTGEEFVLFMKILSGLKSLQTVSGRQQLVELVAEQADLEQTFNPSDPDCVDRLLQCTRQAVPLFSKNVHSTRFVTYFCEQVLPNLGTLTTPVEGLDIQLEVLKLLAEMSSFCGDMEKLETNLRKLFDKLLEYMPLPPEEAENGENAGNEEPKLQFSYVECLLYSFHQLGRKLPDFLTAKLNAEKLKDFKIRLQYFARGLQVYIRQLRLALQGKTGEALKTEENKIKVVALKITNNINVLIKDLFHIPPSYKSTVTLSWKPVQKVEIGQKRASEDTTSGSPPKKSSAGPKRDARQIYNPPSGKYSSNLGNFNYERSLQGK
  koff: 0.00474 s⁻¹
